Experimental data reported in US20250197503A1 (published 2025).

B1: h_Nb2 (expressed from pFUSE-hIgG1-Fc) (Fc fusion)
chain: DVQLQESGGGLVQPGGSLRLSCAASGFTFGDRWMYWLRQAPGKGLEWVSSINPAGRSTYYADSVKGRFTISRDNAKNTLYLQMNSLKSEDTAVYYCTKDPGGYQKGQGTQVTVSS
B2: h_Nb1 (expressed from pFUSE-hIgG1-Fc) (Fc fusion)
chain: DVQLQESGGGLVQPGGSLRLSCAASGFTFSSYAMSWVRQAPGKGLEWVSDINSGGDNTDYADSVKGRFTISRDNAKNTLYLQMNSLKPEDTAVYYCARGPKLCFSSWGQGTQVTVSS

Molecular target: human PD-L1 on stably transfected cell line HEK293T/hPD-L1 (human, UniProt Q9NZQ7 19-290)
Sequence (Q9NZQ7 19-290): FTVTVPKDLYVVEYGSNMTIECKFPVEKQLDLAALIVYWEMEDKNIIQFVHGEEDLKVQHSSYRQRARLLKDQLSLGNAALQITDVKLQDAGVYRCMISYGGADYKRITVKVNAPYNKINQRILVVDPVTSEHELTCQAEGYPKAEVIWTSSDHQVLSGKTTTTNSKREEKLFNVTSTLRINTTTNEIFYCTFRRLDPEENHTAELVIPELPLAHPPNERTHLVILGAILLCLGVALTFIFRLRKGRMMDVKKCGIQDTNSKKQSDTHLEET
Test: FACS blocking of human PD-1/PD-L1 binding

| Binder | IC50 [µg/mL] |
| --- | --- |
| B1 | 0.106 |
| B2 | 0.751 |
